The nature of the data set: protein stability index of a GFP-peptide fusion (GPS, HEK-293T) (PSI 1-6); higher = more stable.
Where [1] appears, read: treatment: DMSO, c terminus: a fixed tail appended.
[2] abbreviates: treatment: MLN4924 1 uM, 8 h, c terminus: a fixed tail appended.

± gives the standard deviation.

This is an account of results in the supplement of paper PMC10567573.
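Also: 24-mer peptide tiles fused after GFP, lentivirally expressed, FACS-sorted into six equal bins by GFP/DsRed ratio, decoded by Illumina sequencing, PSI is the read-weighted mean bin number.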

Take SFPRNNISYLVLSMISMGLFSIAP [JAGN1]: the protein stability index worked out at 3.32 ± 0.2 under setting [1] and 3.42 ± 0.42 under setting [2].
In the same order, the values of LETQAQVCQALAQVDGGANFSVDR [CPOX] are 4.85 ± 0.18 and 4.96 ± 0.14.
On to MPAATVDHSQRICEVWACNLDEEM [CNOT7], for which the protein stability index runs as follows: under setting [1], 4.65 ± 0.41; under setting [2], 4.77 ± 0.28.
In the same order, the values of RAVQGPEETVTQDCLQLIADSETP [TNFSF13B] are 5.38 ± 0.2 and 5.38 ± 0.15.
As for MAMTAGTTTTFPMSNHTRERVTVA [STK38L], the protein stability index reads like this: under setting [1], 3.2 ± 0.36; under setting [2], 3.28 ± 0.36.
VVLCEGVKWLSFHSGYDFGYLIKI [CNOT7]: the protein stability index by setting is: under setting [1], 2.87 ± 0.36; under setting [2], 3.09 ± 1.2.
Turning to PLCNFNITESFTELARIVLLRHGM [RAB40B], the protein stability index was 2.8 ± 0.87 under setting [1] and 2.19 ± 0.97 under setting [2].
As for HAQVVEELSNFKSQKVLGLNEDPL [ZBED1], the protein stability index reads like this: under setting [1], 4.34 ± 0.28; under setting [2], 4.44 ± 0.32.
For QAFCCENDINILRVSNPGRLAELL [GADD45A], in that order: 2.74 ± 0.36 and 2.82 ± 0.34.
In the same order, the values of IPVLYCMVFIAGILLNGVSGWIFF [P2RY14] are 3.28 ± 0.64 and 2.9 ± 0.37.
For KFGVVQTSVEECSQKGCLALSLLE [CLCN6], in that order: 2.81 ± 0.071 and 2.99 ± 0.22.
PLRSSLPISLQATPATPATLSASS [TFE3] came in with a protein stability index under setting [1] of 4.47 ± 0.1 and a protein stability index under setting [2] of 4.57 ± 0.14.
In the same order, the values of ADLRTNHTLNNLVEKLLREEAEGA [TRIM35] are 4.32 ± 0.17 and 4.43 ± 0.2.
For the sequence TWRDPQDEVPGSQGSQASQAPPVP [NR2F2], the protein stability index is 5.18 ± 0.19 under setting [1] and 5.16 ± 0.23 under setting [2].
In the same order, the values of YLNFIRGVVDSEDLPLNISREMLQ [HSP90AB1] are 2.69 ± 0.12 and 3.09 ± 0.47.
On to RLCTWLLALSPDLSLSNATVLTRS [FANCE], for which the protein stability index under setting [1] came to 2.92 ± 0.47 and the protein stability index under setting [2] came out at 3.02 ± 1.
In the same order, the values of EMTTTDDLDFKHHNYKEMRQLMKV [CPXM2] are 3.75 ± 0.099 and 3.53 ± 0.18.
On to FLPTALLCAYGFFASLRPSEPFLT [SLC19A2], for which the protein stability index worked out at 3.25 ± 0.56 under setting [1] and 3.26 ± 0.59 under setting [2].
Sequence STFHTISPSFQLKAAALPPFPLGA [PLAGL1] registered a protein stability index under setting [1] of 2.48 ± 0.46 and a protein stability index under setting [2] of 2.64 ± 0.16.
For RNLGSINTELQDVQRIMVANIEEV [SEC22B], in that order: 4.1 ± 0.15 and 4.05 ± 0.044.
For NFFTTLRVVHHKFHSQRHGSKKD [TMEM120A], the protein stability index came out at 3.32 ± 0.33 (treatment: DMSO, c terminus: native) and 3.3 ± 0.45 (treatment: MLN4924 1 uM, 8 h, c terminus: native).
In the case of YLAYINAKSRAEAALEEESRQRQS [SMARCE1], the protein stability index was found to be 3.93 ± 0.33 under setting [1] and 3.75 ± 0.33 under setting [2].
On to HQRIHTGEKPFECNECGKAFRWGA [ZNF232], for which the protein stability index by setting is: under setting [1], 2.64 ± 0.5; under setting [2], 2.61 ± 0.67.
In the same order, the values of GMPPAGTGMPMMPQQPVMFAQPMM [SNAP91] are 3.03 ± 0.17 and 3.2 ± 0.34.
For FCASTRLPPTPLLLFPEEEATNGR [AUP1], in that order: 3.03 ± 0.59 and 3.79 ± 0.31.
For IEERKQGLEQFINKVAGHPLAQNE [SNX3], in that order: 4.54 ± 0.13 and 4.31 ± 0.47.
As for APTPPSLSQRVMCNDLFKVNPFQL [TIAF1], the protein stability index under setting [1] is 2.11 ± 0.25 and the protein stability index under setting [2] came out at 2.25 ± 0.28.
In the same order, the values of LPFERLAFVLSSNSLKHCTELELF [KLHL13] are 2.73 ± 0.6 and 2.76 ± 0.62.
For AISSVERYDPQTNEWRMVASMSKR [KLHL20], in that order: 3.71 ± 0.22 and 3.99 ± 0.21.
In the same order, the values of ITTNRFYGPQVNNISHTKEKKKGK [WASL] are 4.17 ± 0.42 and 4.37 ± 0.29.
Take PVRTTNKISKQFVAPADVRRLLSY [ZSWIM9]: the protein stability index is 2.44 ± 0.17 under setting [1] and 2.84 ± 0.13 under setting [2].
Turning to HPCGDKNCPAHWLAQDWERCNTTC [ADAMTSL2], the protein stability index under setting [1] is 4.21 ± 0.14 and the protein stability index under setting [2] amounted to 3.99 ± 0.26.
CGQPCSQKSGLIRHQKIHSGEKPY [ZNF649]: the protein stability index runs as follows: under setting [1], 3.02 ± 0.5; under setting [2], 3.21 ± 0.28.
Take GGFQMHYEKTPFDQLAFIEELFSL [EID1]: the protein stability index under setting [1] was 2.12 ± 0.9.
The sequence RLWRLFQTLDVNRDGGLCVNDLAV [SLC25A25] showed a protein stability index under setting [1] of 2.56 ± 0.2 and a protein stability index under setting [2] of 2.49 ± 0.17.
For the sequence DAERDGVKVPTTLAEYCVKTKAPA [CDC34], the protein stability index runs as follows: under setting [1], 5.13 ± 0.067; under setting [2], 5.02 ± 0.26.
Consider SKAQELGGAGREDPGLWSRLCRLA [ZSWIM9], for which the protein stability index under setting [1] came out at 2.96 ± 0.13 and the protein stability index under setting [2] came out at 3.38 ± 0.33.
Regarding QIEERHQEKKRKFLESTDSFNNEL [SMARCE1], the protein stability index is, setting by setting: under setting [1], 4.82 ± 0.25; under setting [2], 5.08 ± 0.37.
EQTFSPAKSLSFRKGELVTASKAI [ADD1]: the protein stability index under setting [1] is 3.99 ± 0.17 and the protein stability index under setting [2] was found to be 4.14 ± 0.28.
Regarding PRLFKEWNITKLSIEYDSEPFGKE [CRY1], the protein stability index came out at 3.06 ± 0.33 under setting [1] and 3.46 ± 0.39 under setting [2].
Regarding DFIHRHCQDQNVPVENFFVKCNGA [SDE2], the protein stability index under setting [1] was 2.83 ± 0.088 and the protein stability index under setting [2] was found to be 2.95 ± 0.34.
For QTRRASALIDRPAPYFERSSSKRY [EPB41L3], in that order: 4.18 ± 0.24 and 4.17 ± 0.3.
For EEDCAWSQELPPPDPGPSPEASHL [ZNF263], in that order: 5.44 ± 0.25 and 5.58 ± 0.25.
In the case of SLEHTLRVAIAHYQDDPDLRFLLD [TSPAN10], the protein stability index reads like this: under setting [1], 2.69 ± 0.16; under setting [2], 2.98 ± 0.14.
In the same order, the values of EEHTTILRPSYTGLSSSSARFLSR [CDC14A] are 3.57 ± 0.12 and 3.7 ± 0.19.
In the same order, the values of SGAVGARRFLLCLYLVGFLDLFGV [MFSD9] are 2.99 ± 0.54 and 2.84 ± 0.37.
For THSPQKSHQCAHCEKTFNRKDHLK [PLAGL1], in that order: 3.97 ± 0.16 and 4.05 ± 0.28.
As for RRNLEEDDYLHKDTGETSMLKRPV [STEAP1], the protein stability index runs as follows: under setting [1], 4.69 ± 0.13; under setting [2], 4.76 ± 0.19.
In the case of ATSRTDREIKVTLVFEHVDQDLRT [CDK4], the protein stability index was 2.2 ± 0.3 under setting [1] and 2.26 ± 0.41 under setting [2].
In the same order, the values of RVYPKCTWLTTPKSTWPRYSKPGL [TCF25] are 2.59 ± 0.23 and 2.46 ± 0.12.
EQGAIPRLVQLLVRAHQDTQRRTS [CTNNB1] yielded a protein stability index under setting [1] of 3.18 ± 0.19 and a protein stability index under setting [2] of 3.26 ± 0.22.
In the same order, the values of KTCNPPDAGPMVVHCSAGVGRTGC [PTPRD] are 3.5 ± 0.32 and 3.5 ± 0.34.
In the same order, the values of EFIQEIRRQLEACQRERAFSVKFE [OAS1] are 2.29 ± 0.31 and 2.27 ± 0.56.
In the same order, the values of YPVGWPPVQELPPSLRAPPPGGWP [ZMAT5] are 2.39 ± 0.88 and 2.83 ± 0.69.
Under setting [2], GSLHAGGARLVAACSAWLCPGLRL [AUH] gave a protein stability index of 2.43 ± 0.7.
For the sequence TINPLWHIRHLGWNPDARYSEHFL [GLT8D2], the protein stability index came out at 2.39 ± 0.22 under setting [1] and 2.32 ± 0.24 under setting [2].
For IVDQVLEEDFDSEQLSVLASCLQE [INTS3], in that order: 4.16 ± 0.16 and 4.23 ± 0.3.
For NYMVQTEDQYIFIHDALLEAVTCG [PTPRD], in that order: 2.25 ± 0.35 and 2.13 ± 0.37.
In the same order, the values of KELCAMSEEQFRQRSPLGGDVLHA [SPDEF] are 3.88 ± 0.27 and 3.87 ± 0.13.
For the sequence KSLLPHLKTGNSSPGIGAVYLANQ [RTP4], the protein stability index under setting [1] was 2.71 ± 0.16 and the protein stability index under setting [2] was determined as 2.77 ± 0.2.
In the same order, the values of MPEEVHHGEEEVETFAFQAEIAQL [HSP90AB1] are 5.24 ± 0.28 and 5.16 ± 0.14.
For MAALNSQTAVQFQQYAAQQYPGNY [ACBD3], in that order: 3.09 ± 0.38 and 3.16 ± 0.1.
With LYFQWYIFYFVIQRKKWVDLAWMI [FADS1], the protein stability index by setting is: under setting [1], 2.25 ± 0.7; under setting [2], 3.09 ± 0.93.
On to PVALLLAQHKDRSTQLEMQLEKPK [MNAT1], for which the protein stability index was found to be 3.84 ± 0.19 under setting [1] and 3.8 ± 0.12 under setting [2].
RYSSDTTPLLNGSSQDRMFETMAI [GOSR1] displayed a protein stability index under setting [1] of 3.29 ± 0.77 and a protein stability index under setting [2] of 3.27 ± 0.24.
In the same order, the values of AVYLMTFLIVTVAWAAHTRLFQVV [TMEM175] are 3.17 ± 0.097 and 3.18 ± 0.2.
In the same order, the values of QTASRSLVLSEDRKSVRYTRQKKN [TRIM15] are 4.83 ± 0.27 and 4.8 ± 0.24.
For INGSEGDGAEIAEKFVFFIGSKNG [DYNC2LI1], the protein stability index runs as follows: under setting [1], 2.99 ± 0.21; under setting [2], 3.4 ± 0.26.
IWDALDWTMQAYERNFWDPSPQLD [WDR41] gave a protein stability index under setting [1] of 2.2 ± 0.27 and a protein stability index under setting [2] of 2.02 ± 0.34.
For ATRAMGLLNTLSLAFVGGLPLAYQ [TMEM175], in that order: 3.11 ± 0.32 and 2.99 ± 0.56.
Regarding VLSHIMFDGPEAWGVCEPQREEVE [ZER1], the protein stability index by setting is: under setting [1], 3.63 ± 0.17; under setting [2], 3.49 ± 0.28.
As for PVASSGEFFGSASQPAVELVSGSQ [CLINT1], the protein stability index worked out at 4.57 ± 0.16 under setting [1] and 4.82 ± 0.21 under setting [2].
